The test concerns the target T1, SETD3 N255A (Homo sapiens, UniProt Q86TU7, N256A).
T1 construct: GST (cleaved yes); made in house; host or cells: Escherichia coli BL21(DE3) CodonPlus
T1 sequence (Q86TU7 1-594 N256A): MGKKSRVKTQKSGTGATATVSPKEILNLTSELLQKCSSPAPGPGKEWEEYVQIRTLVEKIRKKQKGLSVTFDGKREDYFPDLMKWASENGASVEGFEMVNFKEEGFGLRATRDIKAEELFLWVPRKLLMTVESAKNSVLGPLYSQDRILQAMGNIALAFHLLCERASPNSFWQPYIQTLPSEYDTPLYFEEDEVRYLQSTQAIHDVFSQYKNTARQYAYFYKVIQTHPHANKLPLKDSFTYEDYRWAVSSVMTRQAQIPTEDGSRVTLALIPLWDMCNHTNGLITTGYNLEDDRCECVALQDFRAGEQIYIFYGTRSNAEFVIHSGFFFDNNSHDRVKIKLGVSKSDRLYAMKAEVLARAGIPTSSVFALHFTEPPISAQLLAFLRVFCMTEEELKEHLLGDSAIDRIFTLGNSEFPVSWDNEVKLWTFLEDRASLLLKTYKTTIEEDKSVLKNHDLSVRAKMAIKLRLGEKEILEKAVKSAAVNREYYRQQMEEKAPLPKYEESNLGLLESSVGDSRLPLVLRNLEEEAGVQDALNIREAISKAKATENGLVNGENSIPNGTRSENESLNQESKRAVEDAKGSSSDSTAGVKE
The test can be described thus: MALDI-TOF analysis of K73(66–88) methylation by N255A (Fig. 3d). It counts as biochemical. To be noted: pH 10.5, 37 °C, 3 μM N255A, 10 µM peptide, 40 µM SAM. How it is done:
Fig. 3 Kinetics of SETD3 on H73 and K73 peptides. a Comparison of activities of three variants (WT, N255A, and N255V) on H73(66–80) peptide. The assays were performed at room temperature (~22 °C) and pH 8.0 using [WT] = 0.18 μM, [N255A] = 0.18 μM, and [N255V] = 0.72 μM. b Comparison of SETD3 WT activities on two K73 peptides (residues 66–80 and 66–88). The assays were performed at 37 °C and pH 10.5 using [WT] = 3 and 15 μM, respectively, for the long and short peptides. c Comparison of activities of three variants (N255A, N255V, and WT) on K73(66–88) peptide. The assays were performed at 37 °C and pH 10.5 using [N255A] = 90 nM, [N255V] = 0.72 μM and [WT] = 4 μM. Data represent the mean ± SD of N number of independent determinations (N = 3 for the WT and N = 2 for the mutants) performed in duplicate. Source data are provided as a Source Data file. d, e Mass spectrometry analysis of K73(66–88) methylation kinetic showing representative spectra at various time points for N255A variant (panel d) and SETD3 WT enzyme (panel e). The assays were performed at 37 °C and pH 10.5 using 3 μM for both N255A and WT. f In vitro methylation reactions with SETD3, indicated full-length actin proteins, and radiolabeled methyl donor (^3H-SAM). Right, Reactions were resolved by SDS–PAGE and activity was visualized by autoradiography. […] The first column head is 'SETD3', and the substrate peptide is printed only on the plot axis. / Panel b: the first column head is 'SETD3 (WT)', and the rows are K73 peptide substrates.
Recombinant human SETD3 (pXC2003) was expressed as a GST-fusion[22] in Escherichia coli BL21(DE3) CodonPlus^TM cells (Stratagene). […]
Actin K73 peptide (residues 66–88) was used as a substrate for SETD3 (Fig. 3d, e). […] We note that samples diluted into a 0.1% (v/v) TFA solution in water could not be detected by MALDI-TOF, thus the acetonitrile additive is necessary.

On to “K73(66–88): K73-containing actin H73K peptide, residues 66–88 (TLKYPIEKGIVTNWDDMEKIWHH; UniProt P60709 66-88, looked up, variant H73K)”, for which the K73 methylation product result reads like this: (10 min) “monomethyl lysine”; (30 min) “dimethyl”; (1 h) “complete conversion of unmodified substrate to trimethyl lysine”.

These data come from article PMC6684798, “Structural basis for the target specificity of actin histidine methyltransferase SETD3” (Nature Communications, 2019).
